Laboratory results: publication PMC6292511

Tests used:
DMA-1::RFP (C. elegans) = assay: single molecule pull-down
[1] = molecular target: DMA-1::GFPnovo2 (C. elegans); assay: FRET or BRET

percent of DMA-1::RFP speckles co-localized with HPO-30::GFP (DMA-1::RFP (C. elegans)) [%]	fraction of DMA-1::GFPnovo2 bound to HPO-30::mCherry [1] [%]	Substance
56.1		HPO-30::GFP (natural protein)
	30	HPO-30::mCherry (natural protein)
